Target: Get3^BDP•TA targeting complex (Get3 dimer with the model tail-anchored substrate 3xStrep-SUMOnc-Bos1-opsin) (yeast | not stated) (UniProt Q12154)
Assay: FRET or BRET

Chain of Get3^BDP•TA targeting complex (Get3 dimer with the model tail-anchored substrate 3xStrep-SUMOnc-Bos1-opsin) (yeast | not stated) (Q12154 whole entry, chain 1 of 2): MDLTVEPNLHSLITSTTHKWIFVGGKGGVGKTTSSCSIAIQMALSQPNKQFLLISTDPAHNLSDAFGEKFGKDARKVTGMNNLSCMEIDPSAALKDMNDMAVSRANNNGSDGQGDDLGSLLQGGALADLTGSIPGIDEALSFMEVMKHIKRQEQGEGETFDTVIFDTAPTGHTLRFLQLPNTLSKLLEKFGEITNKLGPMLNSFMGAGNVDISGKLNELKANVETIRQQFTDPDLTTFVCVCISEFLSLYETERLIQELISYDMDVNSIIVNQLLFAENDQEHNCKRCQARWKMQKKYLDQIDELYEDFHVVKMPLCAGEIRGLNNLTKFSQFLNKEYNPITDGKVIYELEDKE
Chain of Get3^BDP•TA targeting complex (Get3 dimer with the model tail-anchored substrate 3xStrep-SUMOnc-Bos1-opsin) (yeast | not stated) (P25385 203-244, chain 2 of 2, further chain): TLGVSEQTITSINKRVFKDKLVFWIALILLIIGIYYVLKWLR

Substance	Kd [nM]	reduction in donor fluorescence (FRET) [%]
mini-Get1(NR)/2^TMR (from UniProt P53192 20-102; P40056 1-150) (complex)	7.1	–
mini-Get1/2^TMR (mini-Get1/2 labeled with TMR on Get2CD) (from UniProt P53192 20-102; P40056 1-150) (complex)	–	50
mini-Get1^TMR/2 (mini-Get1/2 labeled with TMR on Get1CD) (from UniProt P53192 20-102; P40056 1-150) (complex)	–	50

Reference: paper PMC8530227
